Data on two molecules can be found in patent US20240309103A1 (Regeneron, published 2024).

Test [1] deals with mouse NPR1 extracellular domain expressed with a C-terminal myc-myc-hexahistidine (mNPR1-MMH) (mouse, UniProt P18293 29-469). The experiment in a line: SPR, mAb captured, 25 C. The essentials:
(§1)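 Capture surface: anti-human Fc mAb or anti-human Fcγ pAb amine-coupled to CM5; mAbs captured, NPR1 reagent as analyte.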
In general terms: In SPR one partner is held on a chip, and binding of the other changes the refractive index at the surface.

Test [2] has as its target T1, human NPR1 extracellular domain expressed with a C-terminal myc-myc-hexahistidine (hNPR1-MMH) (human, UniProt P16066 33-473).
T1 construct: also called hNPR.mmh; monomeric human NPR1
The experiment in a line: SPR, mAb captured, 25 C. The method, boiled down:
as §1

For test [3], the target named is T2, human NPR1 on HEK293/hNPR1.myc.DDK cells (no hANP added) (human, UniProt P16066 33-1061).
T2 sequence (looked up): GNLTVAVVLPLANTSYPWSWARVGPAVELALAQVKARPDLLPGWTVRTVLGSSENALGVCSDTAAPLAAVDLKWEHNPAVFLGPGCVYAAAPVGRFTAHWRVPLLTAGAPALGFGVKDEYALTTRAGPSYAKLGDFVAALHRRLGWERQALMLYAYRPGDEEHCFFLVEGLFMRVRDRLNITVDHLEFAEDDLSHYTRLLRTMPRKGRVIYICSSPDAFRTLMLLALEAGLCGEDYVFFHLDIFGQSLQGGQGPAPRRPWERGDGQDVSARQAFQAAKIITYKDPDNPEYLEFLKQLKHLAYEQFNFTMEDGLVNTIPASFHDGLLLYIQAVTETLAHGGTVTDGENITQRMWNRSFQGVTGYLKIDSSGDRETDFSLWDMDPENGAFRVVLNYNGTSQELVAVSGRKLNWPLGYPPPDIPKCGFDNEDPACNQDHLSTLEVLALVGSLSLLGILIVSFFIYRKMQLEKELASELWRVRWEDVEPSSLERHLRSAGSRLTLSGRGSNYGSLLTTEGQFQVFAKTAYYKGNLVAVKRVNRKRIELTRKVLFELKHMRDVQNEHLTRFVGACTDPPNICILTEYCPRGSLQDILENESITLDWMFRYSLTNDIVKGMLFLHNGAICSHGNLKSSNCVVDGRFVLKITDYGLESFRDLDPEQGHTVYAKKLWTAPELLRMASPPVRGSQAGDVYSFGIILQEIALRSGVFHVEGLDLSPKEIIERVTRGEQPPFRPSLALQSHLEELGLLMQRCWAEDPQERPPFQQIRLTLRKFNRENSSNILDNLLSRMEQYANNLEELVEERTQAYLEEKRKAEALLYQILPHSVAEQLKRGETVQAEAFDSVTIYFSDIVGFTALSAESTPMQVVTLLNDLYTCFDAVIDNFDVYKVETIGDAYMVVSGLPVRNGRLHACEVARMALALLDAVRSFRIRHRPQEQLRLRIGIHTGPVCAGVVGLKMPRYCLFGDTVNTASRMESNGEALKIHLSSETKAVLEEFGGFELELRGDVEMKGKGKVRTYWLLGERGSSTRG
The experiment in a line: cell-based or functional assay.

T1 sequence (P16066 other isoform, or with tags, fused parts or gaps): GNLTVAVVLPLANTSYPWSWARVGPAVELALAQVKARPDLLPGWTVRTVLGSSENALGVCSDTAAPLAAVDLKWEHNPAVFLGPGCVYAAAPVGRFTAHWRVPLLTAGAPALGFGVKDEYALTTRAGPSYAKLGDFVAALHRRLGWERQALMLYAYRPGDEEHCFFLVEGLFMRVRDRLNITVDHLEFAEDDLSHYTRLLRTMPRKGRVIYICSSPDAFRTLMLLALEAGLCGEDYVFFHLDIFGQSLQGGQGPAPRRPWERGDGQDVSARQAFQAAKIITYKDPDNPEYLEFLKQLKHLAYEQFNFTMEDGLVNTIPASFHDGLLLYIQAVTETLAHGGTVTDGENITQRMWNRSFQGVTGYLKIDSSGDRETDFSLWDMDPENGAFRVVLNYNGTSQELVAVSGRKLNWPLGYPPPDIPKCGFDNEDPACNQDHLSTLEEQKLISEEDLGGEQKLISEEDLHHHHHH

B1: mAb22033 (antibody, V domains shown)
VH: QVQLVQSGAEVKKPGASVTVSCKASGYTFTDYYMHWVRQAPGQGLEWMGWIKPNSGGTNSAQRFQGRITMTWDTSISTAYMELSRLRSDDTAVYYCSRGGPVMNYYYYYGMDVWGQGTTVTVSS
VL: NIQMTQSPSSLSASVGDRVTITCRASQSIDSYLNWYQQKPGKAPKLLIYVASSLQSGVPSRFSGSGSGKDFTLTISSLQPEDFATYYCQQSYSIPTFGQGTRLEIK
As for B1, in test [1], the “100 nM Ag Bound (RU)” value amounted to 0 RU and the binding result is “no binding (tested: 100 nM)”. In test [2], the “100 nM Ag Bound (RU)” value stood at 30 RU, binding was put at a Kd of 47.5 nM, the koff turned out to be 0.000406 s⁻¹ and the kon came out at 8550 M⁻¹ s⁻¹. The t½ in test [2] is 28.4 min. Also, in test [3], the “EC50 of Ca2+ flux activation, Expt I” value lay within 83.7 to 384 nM and the “EC50 of Ca2+ flux activation, Expt II” value came to 41.6 nM.

B2: mAb22035 (antibody, V domains shown)
VH: EVQLVESGGGLVQPGRSLRLSCAASGFTFDDYAMHWVRQAPGKGLEWVSGISWNSGTIGYADSVKGRFTMSRDNAKNSLYLQMNSLRPEDTALYYCAKDMGVSLALWGAFDIWGQGTMVTVSS
VL: DIQMTQSPSSLSASVGDKVTITCRASQNIRTYLNWYQQKPGKAPKVLISTASSLQSGVPSRFSGSGSGTDFTLTISSLQPEDFAVFYCQQSFGIPRTFGQGTKVEIK
Regarding B2, in test [1], the “100 nM Ag Bound (RU)” value was found to be 0 RU and the binding result is on record as “no binding (tested: 100 nM)”. Also, in test [2], the “100 nM Ag Bound (RU)” value turned out to be 210 RU, the Kd came out at 0.738 nM, the dissociation rate constant (koff) was determined as 0.00015 s⁻¹ and the kon is 203000 M⁻¹ s⁻¹. Further, the t½ in test [2] stood at 77.3 min. Besides, in test [3], the “EC50 of Ca2+ flux activation, Expt I” value was in the range of 83.7 to 384 nM and the “EC50 of Ca2+ flux activation, Expt II” value was above 200 nM.

Usually Kd stands for a measure of binding affinity in units of concentration. As a reminder, the koff is the rate constant with which the complex falls apart. By kon is commonly meant a measure of how fast the partners come together. A lower kon goes with slow association. The t½ is how long it takes for the measured level to halve. A lower t½ goes with rapid decline.
